Laboratory results published in patent US20030148417A1.

Columns and labels:
Test in all cases: cell-based or functional assay
[1] = biological target: native purified aspartic endoproteinase from cacao beans (TcAP2, 30.5 kDa polypeptide), size exclusion pool #57-64 (Theobroma cacao)
[2] = biological target: recombinant TcAP2 protein (aspartic endoproteinase from Theobroma cacao, secreted by Yarrowia lipolytica clone pCY330-33) (Theobroma cacao)
[3] = biological target: bovine haemoglobin (bovine) (UniProt P01966)
Sequence of bovine haemoglobin (bovine) (P01966 2-142, chain 1 of 2): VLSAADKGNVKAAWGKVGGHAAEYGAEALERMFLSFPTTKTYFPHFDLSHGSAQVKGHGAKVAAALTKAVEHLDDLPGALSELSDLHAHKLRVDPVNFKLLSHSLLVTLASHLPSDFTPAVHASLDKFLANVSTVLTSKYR
Sequence of bovine haemoglobin (bovine) (P02070 whole entry, chain 2 of 2, further chain): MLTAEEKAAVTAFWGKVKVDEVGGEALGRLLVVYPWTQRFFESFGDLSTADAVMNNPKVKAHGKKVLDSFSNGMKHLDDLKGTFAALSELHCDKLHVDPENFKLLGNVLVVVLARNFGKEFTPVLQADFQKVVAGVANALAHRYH

Sequence of native purified aspartic endoproteinase from cacao beans (TcAP2, 30.5 kDa polypeptide), size exclusion pool #57-64 (Theobroma cacao) (chain, as listed by the source limits assumed, form in doubt): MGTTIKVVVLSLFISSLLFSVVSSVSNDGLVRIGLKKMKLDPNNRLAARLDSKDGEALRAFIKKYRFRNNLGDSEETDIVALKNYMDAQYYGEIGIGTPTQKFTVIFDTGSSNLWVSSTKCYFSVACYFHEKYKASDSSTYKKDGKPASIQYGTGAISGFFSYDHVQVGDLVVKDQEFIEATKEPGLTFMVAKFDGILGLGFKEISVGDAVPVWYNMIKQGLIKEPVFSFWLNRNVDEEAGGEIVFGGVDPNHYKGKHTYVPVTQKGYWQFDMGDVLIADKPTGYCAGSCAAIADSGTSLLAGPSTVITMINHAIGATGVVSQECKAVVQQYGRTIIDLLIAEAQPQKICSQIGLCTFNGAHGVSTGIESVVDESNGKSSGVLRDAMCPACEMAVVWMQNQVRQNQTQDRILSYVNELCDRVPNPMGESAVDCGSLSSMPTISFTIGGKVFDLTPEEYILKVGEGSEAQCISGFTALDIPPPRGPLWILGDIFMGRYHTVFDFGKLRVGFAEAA

| Remaining Activity % (hydrolysis of bovine hemoglobin, 0.002 mM Pepstatin A) [1] [%] | pepstatin insensitive activity (hydrolysis of bovine haemoglobin, 2 µM pepstatin), percent of uninhibited activity [2] [%] | hydrolysis of bovine haemoglobin, activity at pH 3 without inhibitor (taken as 100%) (pmoles L-leucine produced/min/mg protein) [3] | Substance |
| --- | --- | --- | --- |
| 0 | 6.65 |  | Pepstatin A (peptide) |
|  |  | 28.8 | recombinant TcAP2 protein (aspartic endoproteinase from Theobroma cacao, secreted by Yarrowia lipolytica clone pCY330-33) (enzyme) |
